From patent publication US20240084019A1 (OSE IMMUNOTHERAPEUTICS, published 2024)
Substitutions are numbered along the chain they refer to. Blank lines part the entries; values can stand above or below the binder they belong to.

Assays:
[1] = biological target: T1, Biot-C7 peptide: biotinylated NH2-PYHTLNLLELHHTAMPGSVFSLGLPLATALAIA-COOH (human, biotinylated (position not given)); test: activity ELISA on Biot-C7 peptide; column head printed ED50 (ng/ml)
T1 construct: also called C7biot; biotinylated antigen-specific peptide
T1 peptide: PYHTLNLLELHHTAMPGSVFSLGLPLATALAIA

[2] = biological target: T1, Biot-C7 peptide: biotinylated …; test: activity ELISA on biotinylated C7 peptide; column head printed ED50 (ng/ml)
[3] = biological target: T1, Biot-C7 peptide: biotinylated …; test: activity ELISA on Biot-C7 peptide; column head printed ED50 (ng/ml); batch #170919
[4] = biological target: T1, Biot-C7 peptide: biotinylated …; test: activity ELISA on Biot-C7 peptide; column head printed ED50 (ng/ml); second batch, no number

- EC50 [1]: 0.193 µg/mL
- EC50 [2]: 0.195 µg/mL
B1: HDLD humanized anti-CMKLR1 antibody (antibody, human IgG1, V domains shown)
VH: EVQLVESGGGLVQPGGSLRLSCAASGFTFSSYAMSWVRQAPGKGLELVATINRYGGSTYYAASVKGRFTISRDNSKNTLYLQMNSLRAEDTAVYYCPKLIYYGNEGDSWGQGTLVTVSS
VL: AIQLTQSPSSLSASVGDRVTITCRASQSVSFLHWYQQKPGKAPKRWIYDATKLTSGVPSRFSGSGSGTDFTLTISSLQPEDFATYYCQQWQSKPPLTFGGGTKVEIK
notes: Variable domains only; fused to constant fragment of human immunoglobulin (human IgG1, kappa)

- EC50 [2]: 0.197 µg/mL
B2: HDLC humanized anti-CMKLR1 antibody (antibody, human IgG1, V domains shown)
VH: B1 VH
VL: B1 VL with Q91N
notes: as for B1

- EC50 [1]: 0.183 µg/mL
B3: HEF-LEF humanized anti-CMKLR1 antibody (antibody, V domains shown)
VH: B1 VH with A49S, N52S, R53G, Y54S
VL: B1 VL with W46L, T51S, T54E
notes: fused to constant fragment of human immunoglobulin

- EC50 [3]: 0.253 µg/mL
- EC50 [2]: 0.557 µg/mL
- EC50 [4]: 0.195 µg/mL
B4: HALA humanized anti-CMKLR1 antibody (VHvAv3-23*04 + VLvAv1-13*01) (antibody, human IgG1, V domains shown)
VH: B1 VH with A33G, A61P, A62D, K98R
VL: B1 VL with R24S, Q27S, L32M, A50T, F70Y, Q91N
notes: Variable domains only; also called germline antibody HALA; IGHV3-23*04 + IGKV1-13*02

- EC50 [2]: 0.333 µg/mL
B5: HCLD humanized anti-CMKLR1 antibody (antibody, human IgG1, V domains shown)
VH: B1 VH with A33G
VL: B1 VL
notes: as for B1

- EC50 [1]: 0.126 µg/mL
B6: HEF-LDT52S humanized anti-CMKLR1 antibody (antibody, V domains shown)
VH: B1 VH with A49S, N52S, R53G, Y54S
VL: B1 VL with T51S
notes: as for B3

- EC50 [2]: 0.167 µg/mL
B7: HCLC humanized anti-CMKLR1 antibody (antibody, human IgG1, V domains shown)
VH: B1 VH with A33G
VL: B1 VL with Q91N
notes: as for B1

- EC50 [1]: 0.237 µg/mL
B8: HD-LDT52S humanized anti-CMKLR1 antibody (antibody, V domains shown)
VH: B1 VH
VL: B1 VL with T51S
notes: as for B3

- EC50 [1]: 0.222 µg/mL
- EC50 [2]: 0.269 µg/mL
B9: anti-CMKLR1 antibody 2G1 (parental chimeric antibody) (antibody, human IgG1, V domains shown)
VH: EVQLVASGGGLVQPGGSLKLSCAASGFTFSSYGMSWVRQTPDRRLELVATINRYGGSTYYPDSVKGRFTISRDNAKNTLYLQMSSLKSEDTAMYYCPRLIYYGNEGDSWGQGTTLTVSS
VL: QIVLTQSPAIMSASPGEKVTMTCSASSSVSFMHWYQQKSGTSPKRWIYDTTKLTSGVPARFSGSGSGTFYSLTISSMEAEDAATYYCQQWNSKPPLTFGPGTKLELKR
notes: also called 2G1 wt; 2G1 WT
